We go through 16 sequences from the DeepSol protein solubility set.

This series can be described thus: soluble on expression in E. coli; label from the status in PepcDB or PDB records.
Consider “MAHHHHHHMVLYIIGLGLGDEKDITIKGKELIEKSDVVYLETYTSILFVSKDVLEETYKKSIEEVDRDFAEENCDKILDEAKNKKVSFLVVGDPLCATTHHDIILRAKKKNIDVEIIHNTSIISAIGECGMQLYNFGQIVSIPYFEDNYKPTSYYDKIYINLKNNFHTLCLLDIKVKERTVENIMRNKKIYEPPRFMTINDSIEQLLYCEHIHKKNIITKNTLGIAIIQIGTDNQQIISGDLLTLKDISYNKPLHSLIICAPTLHDIEKEYFDLYHYNNMKK”, for which the “soluble on expression in E. coli” value was “not soluble”.
In the case of “MNIELLQQLCEASAVSGDEQEVRDILINTLEPCVNEITFDGLGSFVARKGNKGPKVAVVGHMDEVGFMVTHIDESGFLRFTTIGGWWNQSMLNHRVTIRTHKGVKIPGVIGSVAPHALTEKQKQQPLSFDEMFIDIGANSREEVEKRGVEIGNFISPEANFACWGEDKVVGKALDNRIGCAMMAELLQTVNNPEITLYGVGSVEEEVGLRGAQTSAEHIKPDVVIVLDTAVAGDVPGIDNIKYPLKLGQGPGLMLFDKRYFPNQKLVAALKSCAAHNDLPLQFSTMKTGATDGGRYNVMGGGRPVVALCLPTRYLHANSGMISKADYEALLTLIRGFLTTLTAEKVNAFSQFRQVD”, the “soluble on expression in E. coli” value is on record as “not soluble”.
Turning to “MAHHHHHHMESPEADEAFSKSLDAKVDDLFARIPLPQDPMKVALALTDEEAREEAATELVKEAVREMYWRKLGAKQAEELRLKKAQEKLQKQGAIQYFEERREEERLREHENTQFAAQPLAVEPQSPVGKGVTASPLQNLDSTLSAEELRKELAAMKANVSRLEELLRYKT”, the “soluble on expression in E. coli” value was “soluble”.
Take “MGSDKIHHHHHHMVMEVIKVKYKAFDVGAVSYNTDTQMGSFEYFPSFIKTGIELSPIKMPLAKNIYSFPQLDQNTFKGLPGLIADSLPDDFGNAVMNAWIASQGKSTSDITPLQRLQYTGMRGMGALTYSPATKRKNLNASQPIHIESLVSIAQDVLDKRQQFSVDLENNGQEDKEAMMSLMSVGMSAGGARPKAVLAFNNDLTQVRSGQTDAPEGFTHYLMKFDGVSEHNKNQETFGDPMGYGAMEYTYHILAKECGIDMMPCHLLNEGKRRHFITERFDRNGNDKIHVQTLNGLEHVSYKQIGSYSYAELFNTARKLKLSPDDAMQLFKRMVFNVISRNHDDHAKNFGFMLDKDHKWQLAPAYDLAYSYKPDSHWVSKHWMTLNGKQDNFTRDDFYSFEKLSPIFSKRKIDDVLNQTIEAVSQWDKYAAEHAVPNSLIKEISQNLRLFL”: the “soluble on expression in E. coli” value is “not soluble”.
For “MRSANHSELSNALLAISQSLADRSQLTQTLDAVLTAARQMTLAKHGIIYVLDQTGQALIPSTAHHNDKTIVSHPWEALQIDSASENDPFNFAIRNGEVVLINELYKYKGYDCESIYQTEQTLGLKSENLLAWPLIDSESKTIGLLVLLDLNVIDNEAALTEFCRMAASNIRQAVWLEQ”, the “soluble on expression in E. coli” value is recorded as “not soluble”.
Then “ELASDVYNKRIWIKDMQADKGKVQLMKGLYWYFDKDPHLLLGGGTGGGKTFTILSLIYALCRVGEMEICDPKNSDLMALGKLPMFAGKVHTGKTDIVNCLKNAVELMNARFEMMNNSPDYKMGKNYAYYGLKPKFIVIDEFAAFKAELANDYSTDGEVDEYLTQLILKARQCGIFLIVAMQRPDG”, with “not soluble”; and “MDLASNLGGKIDKSDVLTAVEKYEQYHVFHGGNEEERKANYTDMVNKYYDLATSFYEYGWGESFHFAQRWKGESLRESIKRHEHFLALQLGIQPGQKVLDVGCGIGGPLREIARFSNSVVTGLNNNEYQITRGKELNRLAGVDKTCNFVKADFMKMPFPENSFDAVYAIEATCHAPDAYGCYKEIYRVLKPGQCFAAYEWCMTDAFDPDNAEHQKIKGEIEIGDGLPDIRLTTKCLEALKQAGFEVIWEKDLAKDSPVPWYLPLDKNHFSLSSFRLTAVGRFITKNMVKILEYIRLAPQGSQRVSNFLEQAAEGLVDGGRREIFTPMYFFLARKPE”, with “soluble”; and “MRVYDMHVHLHEYSDREVEEILDADKSLVVVAVSDDLESAWRTLDLWHTFGGRVVPCLGFHPWNVREGRVWEAWEVLRLAYRYGVPCLGEVGLDRRFVDEYTWRVQNEVFDAFVQLAEDMGVMLNIHAPDAWKHVAHRIGWTSRARFMYHWYTGPATLPRALPEGRVWFSINSAIRVQEKSVRVAREIPLRSLVVESDGPYNYRGLRLSPLMVRETVKLVAEARGEDPGRLMEAISLNSERLLGLL”, with “not soluble”.
With “MGSDKIHHHHHHMVTIVPINEEERASIINGLKSSVPATKLITLKKIVDLTVLRPESLQYMEMTDKMAIQRIVSGIERIMEYDIDEVLKREASIALEKLKVTLGSKFVQNLFYCQNCNGVVDIGWENCANCGASLAEMEFAETKPCPNCNKHTSENWNNCAHCGFQLIKEEDKIQKCSGCKREVDPTWMVCPYCGTRLKVSKK”, the “soluble on expression in E. coli” value was “not soluble”.
As for “MAFHHGRRCRITPLPETESLQESKKMNINELGARIDRPTIRELIAYATCRNRPISNSTLLRMEKDGRIPCRLKTPLTSPVWDTREVLEALGLQQ”, the “soluble on expression in E. coli” value is on record as “not soluble”.
With “GPLGSMTTKQTVSLFIWLPESKQKTLFISTKNHTQFELNNIIFDVTLSTELPDKEPNAIITKRTHPVGKMADEMRKYEKDHPKVLFLESSAIHDMMSSREEINALLIKNNIPIPNSFSVKSKEEVIQLLQSKQLILPFIVKPENAQGTFNAHQMKIVLEQEGIDDIHFPCLCQHYINHNNKIVKVFCIGNTLKWQTRTSLPNVHRCGIKSVDFNNQHLEDILSWPEGVIDKQDIIENSANRFGSKILEDPILLNLTSEAEMRDLAYKVRCALGVQLCGIDFIKENEQGNPLVVDVNVFPSYGGKVDFDWFVEKVALCYTEVAKI” the entry was “soluble”.
As to “MVSITSDAIRNALHKVKGPNFESDIVSLGLLSEILVVHGKVFFSITVPDGRVQEWESLRRSVEEVVSALDGVEAVFVTLTTERRPEMSSQLQRDEVFFAPKRRANRLLEKMPIEGVRHVVAVASGKGGVGKSTMAINIALALQDSGFKTGLMDADIYGPSLPRLTGLVNQKPQYIDGKKLHPLEKFGLKLMSMGFLVEEENPVVWRGPMVMAAVTQLLRDVLWGPLDVLVVDMPPGTGDAQLTLAQQVQLTGALIVSTPQDLALVDARKAMEMFMKVNVPILGLIENMSYFIAPDTGKRYDIFGYGGTRAEARRRGVPFLAEVPLDAALRSSSDDGIPIFVAKPDEEHTKLYRSIVGQIKNKFF”, the “soluble on expression in E. coli” value is on record as “not soluble”.
With “RRIGKVNLRHNRGFLTPELKRNFLRYTLFYVVASIGSKLSSRLDLFMVSSLDKGGLDSGGIFSIAFYMVAVVEIPSRSLLSVSSPLMADAMKRNDLVKADELFKRVSLHQ”, the “soluble on expression in E. coli” value was “not soluble”.
Consider “MANLGMTGVADGNNSEQTYLGQINYQDQTITKASAKKLNREIDLQRASQLTLWAMPMVGMYQSYNSTIALFDLQEGDAPIIGLHEGYDGVYPFLTANVTTPYTISLVDLSETGPYVVNIPAGSIFGVANNAWQEPIKEIGSGNKETLLFVGPGQEYPKDFDGEVIQSDTNQILYFYRVLGVGAEAEKLKTAVTAYKLSDVANPPQVKFVIYKPKASDADVTIATQPRGMAYWEVVNQYIQNEPMADRDRFFYAWLKDLGIEKGKAFNPTPYQKEILLEGVNTGMAMAQSLAFNKTKKKFSSSLYGSDSGWEGVLAGMDPKIDLDTYSMINERTAYTYEAVTTSAGMIVENPGHGSAYIGSYYDADGNALMGGKNYTLHIEPNPPAANFWSITVYDIKNRLIIRNEIKRSDLSSRSESLVMNSDGSVDLYFGPEAPEGKEGNWIQSNDGESYFMYLRLYGPEQEYFDQTYPMNKIDKTKLEHHHHHH”, for which the “soluble on expression in E. coli” value was “not soluble”.
Regarding “MVKNGRDPPERNFYCTEKEETAPPLMNIFDDFKSQIEREIMTIFLKTAYESLLSIAISTEIIVPEDETRSLEKEVIKLMKLMKLMNLLEPLGNRVSRLMGLVRNAEEHRERIVKRNQESDVREIFKIAASRTKTRFHKALQKESSSSSMKWGFTEAKDEVLSLGIRLTHALIKLTLLRVKKNDREKQLLLRDWIFDESYEKQSALMYLLDYLLYKAEEFAASVVVEESGNDHHRQHILEEDRIGDDILTRISEAIFILQLLAMNLSRNVLTERDLIATNDQLLRCVRDVKFVESTIVVLMKGRSLKLKHKGKQSLLMKERTETIFWAKVNAELNKCWGESFWKYVEAARHLEAVVSSQQIVYTLCKLFVFGFES”, the “soluble on expression in E. coli” value is recorded as “not soluble”.
In the case of “MNFRTGQPSDAAALAAISIEVWLGTYMRKGVSAFFAEYALNEFTSTKMASLLKDPNEHVIVSENEGGIDAFIRLGQGRAAPVSGCSTLEIATLYVQPRHHRRGLGRALLEQGLAYARQASAPSVWLTTNSENAPAIAFYLEQGFEKVGTTHFNIGDQAYLNDVFRRIVSM”, the “soluble on expression in E. coli” value was “soluble”.
